# Experimental data reported in patent US20230357364A1 (INTERNATIONAL AIDS VACCINE INITIATIVE, published 2023).
# Changes are numbered by the printed parent chain.
# B1: L6.dP02E05 (antibody, V domains shown)
# VH: QVQLVQSGSELKKPGASVKVSCKASGYTFATYALNWVRQAPGQGLEWMGWVNTNTGSPTYAQGFTGRFVFSFDTSVSTAYLQIRTLKAEDTAVYYCAVYYYDSGSPGWFDPWGQGTLVTVSS
# VL: DIQLTQSPSSLSASVGDRVTITCRASQTASSYLNWYQQKPGKAPNLLIYAASSLQSGVPSRFSGSGSVTDFTLTISSLQPEDFATYYCQQSYSTPPTFGQGTKVDIK
# notes: human IgG1
# B2: L12.bP13A12 (antibody, V domains shown)
# VH: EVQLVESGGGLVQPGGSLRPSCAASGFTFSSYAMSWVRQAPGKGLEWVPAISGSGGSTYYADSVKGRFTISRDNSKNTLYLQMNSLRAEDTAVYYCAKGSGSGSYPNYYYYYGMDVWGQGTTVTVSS
# VL: SYELTQSPSVSVAPGQTARITCGGNNIGSKSVHWYQRKPGQAPVLVVYDDSDRPSGIPERFSGSNSGNTATLTISRVEAGDEADYYCQVWDNNSDHLVFGGGTKLTVL
# B3: L12.cP09C07 (antibody, V domains shown)
# VH: QVQLVQSGAEVKKPGASVKVSCKASGYIYSGYFMHWVRQAPGQGLEWMGWISPDSGGANYAQTFQGRVTMTRDTSTTTAHMELSRLRSDDTAVYYCARGPRYSGTHFDYWGQGTLVTVSS
# VL: QSALTQPASVSGSPGQSLTISCTGTSSDVGGYNYVSWYQQHPDKAPKLMIYDVNNRPSGVSNRFSGSKSGSTASLTISGLQAEDEADYYCSSYAGSSTQVFGGGTKLIVL
# notes: human IgG1
# B4: L12.cP08D10 (antibody, V domains shown)
# VH: EVQLVQSGAEVKKPGASVKVSCKASGYIFSGYYMHWVRQAPGQGLEWMGWISPDSGGTNYAQNFQGRVTMTRDTSISTGYMELSRLRSDDTAMYYCARGPRYSGTYFDYWGQGVLVTVSS
# VL: B3 VL with A3V, L18I, D43G, A45V, N54S, S71N, A94T, G95S, T98A, I108T
# notes: human IgG1
# B5: L12.bP11G07 (antibody, V domains shown)
# VH: QVQLVESGGGLIQPGGSLRLSCAASGFTVSSNYMSWVRQAPGKGLEWVSVIYSGGSTFYADSVKGRFTISRDNSKSTLYLQMNSLRVEDTAVYYCARDFGDFYFDYWGQGTLVTVSS
# VL: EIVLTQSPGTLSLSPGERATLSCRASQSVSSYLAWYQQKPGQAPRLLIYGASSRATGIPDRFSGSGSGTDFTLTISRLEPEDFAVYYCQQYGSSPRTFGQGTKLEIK
# notes: human IgG1
# B6: L12.cP07E10 (antibody, V domains shown)
# VH: EVQLVESGGGLIQPGGSLRLSCAASGFTVSSNYMSWVRQAPGKGLEWVSVIYSGGSTYYADSVKGRFTISRDNSKNTLYLQMNSLRAEDTAVYYCARDPYGYSSIWDGQGGHWGQGTLVTVSS
# VL: DVVMTQSPSSLSASVGDRVTITCQASQDISNYLNWYQQKPGKAPKLLIYDASNFATGVPSRFSGTGSGTDFTFTISSLQPEDIATYYCQQYDNLPITFGQGTRLEIK
# notes: human IgG1
# B7: L6.dP04A03 (antibody, V domains shown)
# VH: QVQLVQSGAEVKKPGSSVKVSCKASGGTFSSSAISWVRQAPGQGLEWMGGIIPILDITNYAQKFQGRVTITADKSTSTAFMELSSLRSEDTAVYYCALRNQWDLLVYWGQGTLVTVSS
# VL: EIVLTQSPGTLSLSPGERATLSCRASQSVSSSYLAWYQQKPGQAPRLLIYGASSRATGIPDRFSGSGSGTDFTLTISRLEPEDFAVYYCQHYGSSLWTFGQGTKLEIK
# B8: L12.bP11A11 (antibody, V domains shown)
# VH: QVQLVQSGAEVKKPGASVKVSCKASGYTFTGYYMHWVRQAPGQGLEWMGWISPNSGGTNYAQKFQGWVTMTRDTSVSTAYMELSRLRFDDTAVYYCATESWVYGSGSYSSGAFDIWGQGTMVTVSS
# VL: QSVLTQPPSASGSPGQSVTISCTGTSSDVGGYDYVSWYQQHPGKAPKLMIYEVSKRPSGVPDRFSGSKSGNTASLTVPGLQAEDEADYYCTSYAGSNNFVFGGGTKLIVL
# notes: human IgG1
# B9: L12.cP09D05 (antibody, V domains shown)
# VH: QVQLVESGGGLVKPGGSLRLSCAASGFTFNYYSMNWVRQAPGKGLEWISSISTSSSFVYYADSVKGRFTISRDNAKTSLYLQMNSLRAEDTAVYFCARGGYCSDGSCYVQDRLIYYYSGLDVWGQGTTVTVSS
# VL: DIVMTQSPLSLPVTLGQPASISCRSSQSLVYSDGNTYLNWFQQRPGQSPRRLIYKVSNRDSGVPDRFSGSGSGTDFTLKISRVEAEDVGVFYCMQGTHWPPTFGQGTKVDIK
# notes: human IgG1
# B10: L6.P4A3.1 (antibody, V domains shown)
# VH: B7 VH with T28I, T58S, R99T
# VL: EIVLTQSPGTLSLSPGERATLSCRASQRVSSSYLAWYQQKPGQAPRLLIYGAESRATGIPDRFSGSGSGTDFTLTISRLEPEDFAVYYCQHYGSSLWTFGQGTKLEIK
# Biological target: SARS-CoV-1 RBD (RBD-1) (SARS-CoV-1)
# Assay: ELISA
row,Binder,EC50 [µg/mL]
1,B1,> 50
2,B2,> 50
3,B3,> 50
4,B4,> 50
5,B5,> 50
6,B6,> 50
7,B7,0.915
8,B8,> 50
9,B9,> 50

# Biological target: SARS-CoV-2 RBD (RBD-2) (SARS-CoV-2)
# Assay: ELISA
row,Binder,EC50 [µg/mL]
1,B1,0.015
2,B2,0.019
3,B3,0.16
4,B4,> 50
5,B5,0.025
6,B6,0.058
7,B8,1.9
8,B9,0.039

# Biological target: T1, SARS-CoV-1 spike on pseudovirus (SARS-CoV-1, UniProt P59594 14-1255)
# Assay: cell-based or functional assay
row,Binder,PSV in HeLa-ACE2 cells IC50 [µg/mL]
1,B10,0.049

# Biological target: T2, SARS-CoV-2 spike on pseudovirus or live virus (USA-WA1/2020, WT) (SARS-CoV-2, UniProt P0DTC2 14-1273)
# Assay: cell-based or functional assay
Binder,PSV in HeLa-ACE2 cells IC50 [µg/mL],live virus IC50 (HeLa-ACE2) [µg/mL],live virus IC50 (Vero) [µg/mL]
B10,0.005,0.008,0.001

# Biological target: SARS-CoV-2 RBD (RBD-2) (SARS-CoV-2)
# Assay: flow, HeLa-ACE2, mAb:RBD=4:1
Binder,% inhibition of RBD binding to hACE2 [%],MFI (RBD binding to cell surface)
B2,-46.7,16400
B3,64.3,4040
B4,13.2,9710
B5,91.9,982
B6,99.1,178
B8,53.9,5190
B9,80.6,2230

# Biological target: T2, SARS-CoV-2 spike on pseudovirus or live …
# Assay: cell-based or functional assay
# Remark: another data set of the same source
row,Binder,neutralization IC50 [µg/mL]
1,B1,0.0075
2,B7,0.168

# Biological target: T1, SARS-CoV-1 spike on pseudovirus
# Assay: cell-based or functional assay
# Remark: another data set of the same source
row,Binder,PSV neutralization IC50 [µg/mL]
1,B1,> 50
2,B2,> 50
3,B3,> 50
4,B4,> 50
5,B5,> 50
6,B6,> 50
7,B7,0.162
8,B8,> 50
9,B9,> 50

# Biological target: T2, SARS-CoV-2 spike on pseudovirus or live …
# Assay: cell-based or functional assay
# Remark: another data set of the same source
Binder,Maximum Plateau of Neutralization [%],PSV neutralization IC50 [µg/mL]
B1,100,0.002
B2,50,> 50
B3,95,–
B4,60,23.5
B5,100,0.018
B6,100,0.1
B7,100,0.039
B8,100,0.11
B9,100,0.023

# Biological target: T1, SARS-CoV-1 spike on pseudovirus
# Assay: cell-based or functional assay
# Remark: another data set of the same source
row,Binder,PSV neutralization IC50 [µg/mL]
1,B2,> 50
2,B3,> 50
3,B4,> 50
4,B5,> 50
5,B6,> 50
6,B8,> 50
7,B9,> 50

# Biological target: T2, SARS-CoV-2 spike on pseudovirus or live …
# Assay: cell-based or functional assay
# Remark: another data set of the same source
row,Binder,PSV neutralization IC50 [µg/mL]
1,B2,0.051
2,B3,0.085
3,B4,4.3
4,B5,0.013
5,B6,0.029
6,B8,0.016
7,B9,0.008

# Biological target: SARS-CoV-2 RBD (RBD-2) (SARS-CoV-2)
# Assay: flow, HeLa-ACE2, mAb:RBD=2:1
Binder,% inhibition of RBD binding to hACE2 [%],MFI (RBD binding to cell surface)
B2,-44.2,16100
B3,54.5,5130
B4,6.1,10500
B5,86.8,1550
B6,98.6,237
B8,43.6,6330
B9,75.4,2810

# Biological target: SARS-CoV-2 RBD (RBD-2) (SARS-CoV-2)
# Assay: SPR, Fc-captured IgG
Binder,Kd [nM],koff [s⁻¹],kon [M⁻¹ s⁻¹]
B2,26,0.0115,443000
B3,87.9,0.0691,786000
B4,> 500,0.312,59400
B5,8.59,0.00342,399000
B6,2.6,0.000364,140000
B8,170,0.066,388000
B9,36.2,0.0157,435000

# Biological target: SARS-CoV-2 RBD (RBD-2) (SARS-CoV-2)
# Assay: SPR
row,Binder,Kd [nM]
1,B7,257
